Reference: paper PMC3385512
Positions count from the first letter of the chain named. Numbers in names are those of the source.

Substrate: Nc1ncnc2c1ncn2[C@@H]1O[C@H](COP(=O)(O)OP(=O)(O)OP(=O)(O)O)[C@@H](O)[C@H]1O
Experiment: purified protein, by the assay type

B1: ALK (V1058-P1620) G1202R (Homo sapiens; G1202R) (protein)
chain: VYRRKHQELQAMQMELQSPEYKLSKLRTSTIMTDYNPNYCFAGKTSSISDLKEVPRKNITLIRGLGHGAFGEVYEGQVSGMPNDPSPLQVAVKTLPEVCSEQDELDFLMEALIISKFNHQNIVRCIGVSLQSLPRFILLELMAGRDLKSFLRETRPRPSQPSSLAMLDLLHVARDIACGCQYLEENHFIHRDIAARNCLLTCPGPGRVAKIGDFGMARDIYRASYYRKGGCAMLPVKWMPPEAFMEGIFTSKTDTWSFGVLLWEIFSLGYMPYPSKSNQEVLEFVTSGGRMDPPKNCPGPVYRIMTQCWQHQPEDRPNFAIILERIEYCTQDPDVINTALPIEYGPLVEEEEKVPVRPKDPEGVPPLLVSQQAKREEERSPAAPPPLPTTSSGKAAKKPTAAEISVRVPRGPAVEGGHVNMAFSQSNPPSELHKVHGSRNKPTSLWNPTYGSWFTEKPTKKNNPIAKKEPHDRGNLGLEGSCTVPPNVATGRLPGASLLLEPSSLTANMKEVPLFRLRHFPCGNVNYGYQQQGLPLEAATAPGAGHYEDTILKSKNSMNQPGP
B1 showed a Km (other: ALK G1202R) of 23 µM.

B2: ALK (V1058-P1620) S1206Y (Homo sapiens; S1206Y) (protein)
chain: B1 chain with R145G, S149Y
Protein B2 has a Km (other: ALK S1206Y) of 20 µM.
